Experiments:
carboxypeptidase B = molecular target: T1, carboxypeptidase B (Homo sapiens, UniProt P15086); experiment: Resistance in vitro to digestion with carboxypeptidase B; assay type: in vitro ADME
T1 sequence (P15086 111-417): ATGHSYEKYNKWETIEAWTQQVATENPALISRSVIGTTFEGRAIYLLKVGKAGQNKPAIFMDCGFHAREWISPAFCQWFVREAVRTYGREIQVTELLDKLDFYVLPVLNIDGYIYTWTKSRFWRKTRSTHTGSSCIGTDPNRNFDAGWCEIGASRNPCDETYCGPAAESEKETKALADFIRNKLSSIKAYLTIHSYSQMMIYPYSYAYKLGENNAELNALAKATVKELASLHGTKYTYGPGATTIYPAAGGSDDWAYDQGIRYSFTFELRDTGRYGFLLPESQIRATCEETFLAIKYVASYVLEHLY

[1] = test system: streptozotocin-induced diabetic rats; experiment: Stimulation of islet neogenesis in vivo, glucose challenge in diabetic rats; parameters: species or system rat
Method: After treatment, rats were evaluated for ability to restore plasma glucose to resting levels, shown on the ordinate, as a function of time in minutes shown on the abscissa, after an oral glucose challenge.
EGF51N produced as above was used in an assay to measure to stimulation of islet neogenesis in vivo, as measured by lower blood concentration of treated animals to a subsequent challenge by glucose, to diabetic rats.

[2] = test system: anaesthetized gastric fistula rats; experiment: Inhibition of gastric acid secretion in vivo; parameters: species or system rat; details: after intravenous bolus injection of 8 μg
[3] = relative enzyme concentration (ratio of carboxypeptidase to EGF) 0.01
[4] = relative enzyme concentration (ratio of carboxypeptidase to EGF) 0.1
[5] = relative enzyme concentration (ratio of carboxypeptidase to EGF) 1 (excess enzyme)

Compound: CC[C@H](C)[C@@H]1NC(=O)[C@H](Cc2ccc(O)cc2)NC(=O)CNC(=O)[C@H](C(C)C)NC(=O)[C@H](C(C)C)NC(=O)[C@@H](NC(=O)[C@H](CC(N)=O)NC(=O)[C@@H]2CSSC[C@@H]3NC(=O)[C@H](Cc4ccc(O)cc4)NC(=O)CNC(=O)[C@H](CC(=O)O)NC(=O)[C@H](Cc4c[nH]cn4)NC(=O)[C@H](CO)NC(=O)[C@H](CC(C)C)NC(=O)[C@@H]4CCCN4C(=O)[C@@H](NC(=O)[C@H](CCC(=O)O)NC(=O)[C@H](CO)NC(=O)[C@H](CC(=O)O)NC(=O)[C@H](CO)NC(=O)[C@@H](N)CC(N)=O)CSSC[C@H](NC(=O)[C@H](C(C)C)NC(=O)CNC(=O)[C@H](CC(=O)O)NC(=O)[C@H](Cc4c[nH]cn4)NC(=O)[C@H](CC(C)C)NC3=O)C(=O)N[C@@H](CCSC)C(=O)N[C@@H](Cc3ccc(O)cc3)C(=O)N[C@@H]([C@@H](C)CC)C(=O)N[C@@H](CCC(=O)O)C(=O)N[C@@H](C)C(=O)N[C@@H](CC(C)C)C(=O)N[C@@H](CC(=O)O)C(=O)N[C@@H](CCCCN)C(=O)N[C@@H](Cc3ccc(O)cc3)C(=O)N[C@@H](C)C(=O)N2)CSSC[C@@H](C(=O)N[C@@H](CCC(N)=O)C(=O)N[C@@H](Cc2ccc(O)cc2)C(=O)N[C@@H](CCCNC(=N)N)C(=O)N[C@@H](CC(=O)O)C(=O)N[C@@H](CC(C)C)C(=O)N[C@@H](CCCCN)C(=O)N[C@@H](Cc2c[nH]c3ccccc23)C(=O)N[C@@H](Cc2c[nH]c3ccccc23)C(=O)N[C@@H](CCC(=O)O)C(=O)N[C@@H](CC(C)C)C(=O)N[C@@H](CCCNC(=N)N)C(=O)O)NC(=O)[C@H](CCCNC(=N)N)NC(=O)[C@H](CCC(=O)O)NC(=O)CNC1=O [EGF53, reference compound]
- % remaining (carboxypeptidase B; [3]): 75%
- % remaining (carboxypeptidase B; [4]): 1%
- % remaining (carboxypeptidase B; [5]): 1%

Compound: EGF51N: modified human EGF, chain length 51 amino acids, C-terminus residue asparagine instead of glutamic acid; produced in Pichia pastoris (NSDSECPLSHDGYCLHDGVCMYIEALDKYACNCVVGYIGERCQYRSLKYYN; not fully specified; Recombinant human EGF51N)
- restoration of plasma glucose to resting levels after oral glucose challenge ([1]; 40 μg/kg/day of each of human gastrin and EGF51N, intraperitoneal continuous infusion for 14 days): Rapid restoration to resting levels of plasma glucose
- potency in stimulation of islet neogenesis ([1]; diabetic rats, glucose challenge, compared with positive control TGFα): equivalent to the positive control TGFα
- duration of inhibition of gastric acid production [2]: 20 to 50 min
- onset of inhibition of gastric acid production [2]: 10 to 20 min
- % remaining (carboxypeptidase B; [3]): 75%
- % remaining (carboxypeptidase B; [4]): 30%
- % remaining (carboxypeptidase B; [5]): 6%
